Experiment [1] relates to retinal ganglion cells (RGC). Nature of the experiment: RGC loss (anti-Brn3a RGC counts, whole-mount retina) in microbead-induced glaucoma mice. The experiment is classed as in vivo. Particulars: MB-injected high-IOP mice, intravitreal treatment, versus vehicle/saline-treated mice. The source says: (§1) FIG. 3A is a line graph showing the intraocular pressure (IOP) level at baseline and up to 42 days/6 weeks post-MB injection of mice receiving either intravitreal injections of CSF1R Ab, CSF2, CSF1R Ab+CSF2 or control vehicle at D3 and D7. FIG. 3B is a bar graph showing the ratio of positive scotopic threshold response (pSTR) of glaucoma eye to contralateral normal eye. FIG. 3C is a bar graph showing the contrast sensitivity (CS) of the OMR. FIG. 3D is a bar graph showing Retinal Ganglion Cells (RGC) density of control (Ctr), vehicle (Veh) and CSF1R Ab, CSF2 and CSF2+CSF1 Ab-treated groups. Note Ctr group are the uninjured eyes. FIGS. 3E-3G are photomicrographs of Brn3a+RGCs (red) at 6 week post-injection of microbeads. In these figures (FIGS. 3A-G), ‘#’ and ‘*’ represents statistical analysis comparing to control and vehicle group, respectively. *, ** and *** represent P value <0.05, 0.01 and 0.001, respectively. #, ## and ### represent P value <0.05, <0.01 and <0.001.
(§2) FIG. 7 is a schematic representation showing the experimental design. […]
Microbeads (MB) were injected into the anterior chamber of adult B6 mice to induce high IOP. The expression of CSF1/2 and their receptors was examined by immunostaining and quantitative polymerase chain reaction (qPCR) at different time points after MB injection. […]

The subject of the next experiment is retinal function (pSTR). Nature of the experiment: positive scotopic threshold response (pSTR) in microbead-induced glaucoma mice. Type of experiment: in vivo. Particulars: MB-induced glaucomatous mice, intravitreal treatment, 4 and 6 weeks after MB injection, versus vehicle.
Text: as §1, §2
The function of retinal ganglion cells (RGCs) can be non-invasively assessed in experimental and genetic models of glaucoma by means of variants of the ERG technique that emphasize the activity of inner retina neurons. […]

For a further experiment, the system named is visual function. Nature of the experiment: visual function (contrast sensitivity and visual acuity) in microbead-induced glaucoma mice. The experiment is classed as in vivo. Conditions: MB-induced glaucomatous mice, intravitreal treatment, 4 and 6 weeks after MB injection, versus vehicle.
Text: as §1, with “<0.001. […] FIG. 7 is a schematic representation showing the experimental design. It was hypothesized that inhibiting CSF1 by administration of CSF1R antibody (CSF1R Ab) and/or promoting CSF2 signaling protect RGC against glaucomatous damage. Four experimental groups were proposed: following MB-injection to induce high IOP, mice received treatment of vehicle (PBS), CSF1R Ab, CSF2, or CSF1R Ab+CSF2 were studied. […]” for “<0.001.”

Another experiment relates to microglia. Nature of the experiment: microglial activation in a glaucoma mouse model. The experiment is classed as in vivo, mice. Particulars: intravitreal injection. The source says: Activation of microglia plays a critical role in the progression of neurodegeneration in glaucoma. Colony stimulating factor 1 (CSF1) and colony stimulating factor 2 (CSF2) are involved in glaucomatous neuron loss by regulating microglia function.

The mark [2] stands for this setting: listed as CSF2 recombinant protein.

“Also recorded” adds a separate entry of the source.

B1: CSF2: Granulocyte-macrophage colony-stimulating factor recombinant protein; exemplary source Peprotech Recombinant Murine GM-CSF, Cat #: 315-03 (protein, UniProt P01587 18-141, looked up)
Granulocyte-macrophage …: APTRSPITVTRPWKHVEAIKEALNLLDDMPVTLNEEVEVVSNEFSFKKLTCVQTRLKIFEQGLRGNFTKLKGALNMTASYYQTYCPPTPETDCETQVTTYADFIDSLKTFLTDIPFECKKPGQK
Turning to B1, the figures for the RGC loss result in experiment [1] and in experiment [1] (setting [2]) were “decreased RGC loss; also recorded: reduced or attenuated glaucomatous RGC loss” and “protected the loss of retinal ganglion cells (RGCs)”, respectively. Besides, the pSTR amplitude result in the experiment on retinal function (pSTR) is on record as “pSTR increased”. For the same molecule, the “visual function (vision contrast sensitivity and visual acuity)” value in the experiment on visual function was “visual function increased”; in the experiment with visual function (setting [2]) it was “protected the loss of retinal ganglion cells (RGCs) and vision function”. Also, the microglial activation result in the experiment with microglia is “significantly suppressed microglial activation”.

Values taken from patent US11692029B2, “Therapy for glaucoma and optic neuropathy by targeting colony stimulating factors” (The Schepens Eye Research Institute, Inc., priority 2018, dated 2023).
